Patent US20020045591A1, “Methods and therapeutic compositions for treating cancer” (priority 1998, published 2002)

Legend:
[1] = tested on: LEF-1-driven transcription; experiment: LEF-1 consensus (TOPFLASH) transactivation in 293 cells; assay type: cell-based, human; details: FIG. 18B
Protocol: (§1) Cell Culture and Transfections: Canine kidney epithelial cells MDCK, human fibrosarcoma HT1080, 293-T human embryonic kidney cells, Balb/C mouse 3T3 and human colon carcinoma SW480 cell lines were cultured in Dulbecco's modified Eagle's medium supplemented with 10% calf serum (Gibco, Grand Island, N.Y.) at 37° C. in the presence of 7% CO2. The human renal carcinoma cell line KTCTL60 was grown in RPMI medium and 10% calf serum. Cells were transiently transfected with the cDNA constructs described below, using Ca^2+-phosphate or lipofectamine (Gibco) and the expression of the transgene was assessed between 24 and 48 hours after transfection. In some experiments, the expression of the stably transfected NH2 terminus-deleted β-catenin (Δ57) was enhanced in HT1080 cells by overnight treatment with 2 mM sodium butyrate.
(§2) A plasmid encoding β-galactosidase (0.5 μg) was cotransfected to enable normalization for transfection efficiency. The relevant plasmid expressing catenin constructs (4.5 μg) was co-transfected with the reporter, or an empty expression vector was included. After 24-48 hours expression of the reporter (luciferase) and the control (β-galactosidase) genes were determined using enzyme assay systems from Promega (Madison, Wis.).

endogenous β-catenin = experiment: Double immunofluorescence of endogenous β-catenin in transfected cells; assay type: cell-based; details: FIG. 18C
Source text: (§3) Immunofluorescence Microscopy: Cells cultured on glass coverslips were fixed with 3.7% paraformaldehyde in PBS and permeabilized with 0.5% Triton X-100. Monoclonal antibodies against human plakoglobin (11E4), β-catenin (5H10), the COOH terminus of β-catenin (6F9) and α-catenin (1G5) were described and kindly provided by Drs. M. Wheelock and K. Johnson (Univ. Toledo, Ohio). The secondary antibody was FITC- or Cy3-labeled goat anti mouse IgG (Jackson ImmunoResearch Laboratories, West Grove, Pa.). Polyclonal antiserum against β-catenin, monoclonal antibody against pan cadherin (CH-19), vinculin ([…]) and α-actinin (BM75.2) were from Sigma (Holon, Israel). Monoclonal antibodies against the splicing factor SC35 and the HA epitope were kindly provided by Dr. D. Helfman (CSH Laboratory, N.Y.). Polyclonal rabbit antibody against the VSV-G epitope was a gift from Dr. JC Perriard (ETH, Zurich, Switzerland). FITC-labeled goat anti-rabbit IgG antibody was from Cappel/ICN. Monoclonal antibody against LEF-1 was kindly provided by Dr. R. Grosschedl (Univ. Calif. San Francisco, Calif.). […] Images of the fluorescent cells were recorded with a cooled, scientific grade CCD camera (Photometrics, Tucson, Ariz.). Integrated fluorescent intensities in transfected and nontransfected cells were determined, after the background was subtracted.

[2] = tested on: β-catenin-dependent transactivation; experiment: LEF-1 consensus luciferase transactivation in SW480 cells (Example 2); assay type: cell-based, human; details: co-transfection, FIG. 19A
Protocol: as §1, §2

SW480 cells = experiment: Double immunofluorescence of β-catenin in SW480 cells (Example 2); assay type: cell-based, human; details: transfected SW480 cells, FIG. 19B
Source text: as §3

Molecule	LEF-1-driven transcription, fold lower extent than β-catenin [1]	nuclear translocation of endogenous β-catenin (endogenous β-catenin)	effect on constitutive LEF-1 driven transcription [2]	effect on nuclear localization of β-catenin (SW480 cells)
plakoglobin: HA-tagged human plakoglobin (protein, UniProt P14923 1-745, looked up, HA tag) Junction plakoglobin: MEVMNLMEQPIKVTEWQQTYTYDSGIHSGANTCVPSVSSKGIMEEDEACGRQYTLKKTTTYTQGVPPSQGDLEYQMSTTARAKRVREAMCPGVSGEDSSLLLATQVEGQATNLQRLAEPSQLLKSAIVHLINYQDDAELATRALPELTKLLNDEDPVVVTKAAMIVNQLSKKEASRRALMGSPQLVAAVVRTMQNTSDLDTARCTTSILHNLSHHREGLLAIFKSGGIPALVRMLSSPVESVLFYAITTLHNLLLYQEGAKMAVRLADGLQKMVPLLNKNNPKFLAITTDCLQLLAYGNQESKLIILANGGPQALVQIMRNYSYEKLLWTTSRVLKVLSVCPSNKPAIVEAGGMQALGKHLTSNSPRLVQNCLWTLRNLSDVATKQEGLESVLKILVNQLSVDDVNVLTCATGTLSNLTCNNSKNKTLVTQNSGVEALIHAILRAGDKDDITEPAVCALRHLTSRHPEAEMAQNSVRLNYGIPAIVKLLNQPNQWPLVKATIGLIRNLALCPANHAPLQEAAVIPRLVQLLVKAHQDAQRHVAAGTQQPYTDGVRMEEIVEGCTGALHILARDPMNRMEIFRLNTIPLFVQLLYSSVENIQRVAAGVLCELAQDKEAADAIDAEGASAPLMELLHSRNEGTATYAAAVLFRISEDKNPDYRKRVSVELTNSLFKHDPAAWEAAQSMIPINEPYGDDMDATYRPMYSSDVPLDPLEMHMDMDGDYPIDTYSDGLRPPYPTADHMLA	3 to 4 fold	resulted in nuclear translocation of endogenous β-catenin	–	–
α-catenin: HA-tagged chicken α-catenin in the pCGN vector (protein, left off: small tags and cut ends, HA-tagged chicken α-catenin in the pCGN vector) TAVTAGNVNFRWDPKSLEIRTLAVERLLEPLVTQVTTLVNTSNKGPSNKKRGRSKKAHVLAASVEQATENFLDKGDKIAKESQFLKEELVAAVEDVRKQGDLMKSASGEFADDPCSSVKRGNMVRAARALLSAVTRLLILADMADVYKLLVQLKVVEEGILKLRNAGTEQDLGIQYKALKPEVDKLNIMAAKRQQELKDVGHRDQMAAARGILQKNVPILYTASQACLQHFDVAAYKANRDLIYKQLQQAVTGISNAAQATASDDAAQQQGGGGELAYALNNFDKQIIVDPSTFSEQRFRPSLEERLESIISGAALMADSSCTRDDRRERIVAECNAVRQALQDLLSEYMGNAGRKERSDALNSAIDKMTKKTRDLRRQLRKAVMDHVSDSFLETNVPLLVLIEAARNGNEKEVKEYTQVFREHANKLIEVANLACSISNNEEGVKLVRMSASQLEALCPQVINAALALAAKPQSKLAQENMELFKEQWEKQVRVLTDAVDDITSIDDFLAVSENHILEDVNKCVIALQEKDVDGLDRTAGAIRGRAARVIHVVTSEMDNYEPGVYTEKVLEATKLLSNTVMPRFTEQVEAAVEALSSDPAQPMDENEFIDRSRLVYDGIRDIRKAVLMIRTPEELDDSDFETEDFDVRSKTSIQTEDDQLIAGQSARAIMAQLPQEQKAKIAEAVASFQEEKSKLDAEVSKWDDSGNDIIVLAKQMCMIMMEMTDFTRGKGPLKNTSDVISAAKKIAEAGSRMDKLGRTIADHCPDSASKQDLLAYLQRIALYCHQLNICSKVKAEVQNLGGELVVSGVDSAMSLIQAAKNLMNAVVQTVKASYVASTKYQKSQGMASLNLPAVSWKMKAPEKKPLVKREKQDETQTKIKRASQKKHVNPVQALSEFKAMESI	–	–	effectively blocked	sequestered to the cytoplasm
α-catenin Δβ: HA-tagged mutant α-catenin lacking the β-catenin binding site (amino acids 118-166) (protein, left off: small tags and cut ends) MTAVTAGNVNFRWDPKSLEIRTLAVERLLEPLVTQVTTLVNTSNKGPSNKKRGRSKKAHVLAASVEQATENFLDKGDKIAKESQFLKEELVAAVEDVRKQGDLMKSASGEFADDPCSAGTEQDLGIQYKALKPEVDKLNIMAAKRQQELKDVGHRDQMAAARGILQKNVPILYTASQACLQHFDVAAYKANRDLIYKQLQQAVTGISNAAQATASDDAAQQQGGGGELAYALNNFDKQIIVDPSTFSEQRFRPSLEERLESIISGAALMADSSCTRDDRRERIVAECNAVRQALQDLLSEYMGNAGRKERSDALNSAIDKMTKKTRDLRRQLRKAVMDHVSDSFLETNVPLLVLIEAARNGNEKEVKEYTQVFREHANKLIEVANLACSISNNEEGVKLVRMSASQLEALCPQVINAALALAAKPQSKLAQENMELFKEQWEKQVRVLTDAVDDITSIDDFLAVSENHILEDVNKCVIALQEKDVDGLDRTAGAIRGRAARVIHVVTSEMDNYEPGVYTEKVLEATKLLSNTVMPRFTEQVEAAVEALSSDPAQPMDENEFIDRSRLVYDGIRDIRKAVLMIRTPEELDDSDFETEDFDVRSKTSIQTEDDQLIAGQSARAIMAQLPQEQKAKIAEAVASFQEEKSKLDAEVSKWDDSGNDIIVLAKQMCMIMMEMTDFTRGKGPLKNTSDVISAAKKIAEAGSRMDKLGRTIADHCPDSASKQDLLAYLQRIALYCHQLNICSKVKAEVQNLGGELVVSGVDSAMSLIQAAKNLMNAVVQTVKASYVASTKYQKSQGMASLNLPAVSWKMKAPEKKPLVKREKQDETQTKIKRASQKKHVNPVQALSEFKAMESI	–	–	abolished the transactivation inhibition capacity	did not show this activity
